Measured values: US20230406933A1 (RANDOX LABORATORIES, published 2023)

Experiments:
[1] = molecular target: PD-L1 on the cell surface in the Promega PD1/PD-L1 Blockade Bioassay (Cat# J1250); assay: cell-based or functional assay
[2] = molecular target: T1, PDL1 coated in the commercial PD1:PDL1 inhibition assay (Acro Biosystems Cat# EP-101) (Homo sapiens (Human), UniProt Q9NZQ7 19-238); assay: Acro Biosystems PD1:PDL1 inhibition assay; PDL1 coated, biotinylated PD1 as competitor; reference Avelumab
T1 construct: Kit reagent; construct not described

- EC50 of luciferase activity fold change, Promega PD-1/PD-L1 blockade bioassay, panel GS542 [1]: 0.165 µg/mL
- amount of blocking relative to Avelumab [2]: 10 fold
B1: humanised 32.1A1 clone (VHH)
VHH: QVQLVESGGGLVQPGGSLRLSCAASGRTFREYGMGWFRQAPGKGLEWVATISSSGSYSYYADSVKGRFTISRDNSKNTLYLQMNSLRAEDTAVYYCAASSLLRGSSSRAESYDSWGQGTLVTVSS
notes: CDRs of 32.1A1 grafted into a model human VH3 framework; Expressed from pScreen, purified by IMAC, detected with anti-Myc HRP; also called hum-32.1A1; hum32.1A1
